These results are taken from paper doi:10.1101/2022.01.09.475567.

The data set has as its target NP:WT-C-His (nucleoprotein) (Influenza A virus A/Puerto Rico/8/1934 …, UniProt P03466 1-498). Nature of the data set: BLI. (In BLI a coated tip is dipped into the sample, and binding shifts an interference pattern.)

Chain of NP:WT-C-His (nucleoprotein) (P03466 whole entry): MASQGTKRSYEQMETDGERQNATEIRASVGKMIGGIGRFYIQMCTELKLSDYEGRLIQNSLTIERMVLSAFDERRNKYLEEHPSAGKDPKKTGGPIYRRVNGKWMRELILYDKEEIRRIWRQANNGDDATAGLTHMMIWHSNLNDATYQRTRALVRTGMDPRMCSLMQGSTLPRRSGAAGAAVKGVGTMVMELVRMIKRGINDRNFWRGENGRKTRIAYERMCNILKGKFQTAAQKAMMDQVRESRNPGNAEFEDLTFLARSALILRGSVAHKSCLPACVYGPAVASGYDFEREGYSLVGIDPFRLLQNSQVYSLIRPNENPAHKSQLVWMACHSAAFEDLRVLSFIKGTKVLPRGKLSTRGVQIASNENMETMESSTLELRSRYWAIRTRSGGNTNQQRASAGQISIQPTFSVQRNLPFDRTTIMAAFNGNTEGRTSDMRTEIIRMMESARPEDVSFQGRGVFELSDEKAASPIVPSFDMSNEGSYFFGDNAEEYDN

Take UUUGUUACACACACACACGCUGUG (ssRNA) [24nt ssRNA]: the Kd – broadly, the equilibrium constant for the complex coming apart – is 2.48 ± 0.091 nM.
